The supplement of paper PMC9732359
± gives the uncertainty stated by the source.

experiment: protein stability index of a GFP-peptide fusion (yeast GPS) (PSI 1-4); higher = more stable; sorted into four equal gates, so the index is relative within each strain; details: doa10∆
Method in brief: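 Mid-log yeast cultures in leucine-free medium, carrying a pooled plasmid library, were sorted into four equal gates by their GFP/Cherry fluorescence ratio. Each plasmid expressed Cherry along with GFP fused upstream of a tiled 17-residue yeast protein peptide. Plasmids recovered from each gate were PCR-amplified and Illumina-sequenced, with reads assigned to strains by barcodes. The protein stability index was obtained by summing each gate's read frequency weighted by its gate number.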

AIAGNSTTNSDVSLLLQ [RGR1] and AIGTKRYDSNSGGEREI [RPT2] are within error of each other in protein stability index: 3.09 ± 0.13 for the first, 3.28 ± 0.22 for the second.

Going from AIGYEPLSLTHRDKNKM [DIS3] to AIHIFESYYNWKYNNFL [YML103C/NUP188], the protein stability index falls from 2.83 ± 0.058 to 2.04 ± 0.13.

First: AILKLLENMPHPWEQAK [PRP8]
Second: AILQEKILSILNRSHFA [ECM29]
The protein stability index of the first is higher: 2.76 ± 0.12 for the first, 1.87 ± 0.05 for the second.

First: AIQFVKENELLFGEKSI [YCS4]
Second: AISKKDLEEVKRFQVLY [SEC65]
The protein stability index of the first is lower: 2.19 ± 0.098 for the first, 2.6 ± 0.16 for the second.

First: AISLGLLKGSIDQVNEL [RPN9]
Second: AKCNSLLQLKYFSNKTS [POP5]
The protein stability index of the first is higher: 3.36 ± 0.098 for the first, 1.84 ± 0.076 for the second.

Compared with AKILSQAPTELELQVAQ [RPS7A], AKKLPNGNWEVGVHIAD [DIS3] is lower in protein stability index: 2.48 ± 0.048 for the first, 1.61 ± 0.16 for the second.

First: AKKQNYKLTNDEEGIFS [YCG1]
Second: AKKTIQNPLNKSQNTAL [SIR4]
The protein stability index of the first is higher: 3.23 ± 0.098 for the first, 3.02 ± 0.058 for the second.

Going from AKLESLLENSVDKNFDK [MTW1] to AKNRILASKIKQYERLR [RRI1], the protein stability index falls from 3.39 ± 0.06 to 2.48 ± 0.052.

Going from AKRNLPHTTLVNECIAQ [CDC53] to ALAFGYVKSLHKQISAE [SIN4], the protein stability index falls from 2.37 ± 0.072 to 1.65 ± 0.056.

First: ALKGPVRDKLDEYQAAV [DPB4]
Second: ALKKSRSKGKQNRPYNH [RPC17]
The protein stability index of the first is higher: 3.31 ± 0.072 for the first, 3.04 ± 0.093 for the second.

First: ALNGIDINTVNTNLMNG [GRR1]
Second: ALNKISKYYPGVIIKVE [SNU114]
The protein stability index of the first is higher: 3.29 ± 0.051 for the first, 2.04 ± 0.057 for the second.

Compared with ALTVQEVLNRVASRHPS [YDL116W/NUP84], AMANAPGNNIPYMNHKN [GAL11] is lower in protein stability index: 3.1 ± 0.086 for the first, 2.83 ± 0.17 for the second.

Going from AMKELAEKKIPLVIRRY [RPO26] to AMTAAEHGLHAPAYAWS [CYT1], the protein stability index rises from 1.28 ± 0.087 to 3.16 ± 0.13.

Compared with ANAMNRMAKLCARFLGN [RPO31], ANFIFSPASGIVDKYIG [RPT4] is lower in protein stability index: 3.12 ± 0.21 for the first, 2.81 ± 0.067 for the second.

Going from ANKEKKRAEKAARKAEK [RPL24B] to ANLLFKKEKLKQENSTL [RPC82], the protein stability index falls from 3.34 ± 0.095 to 2.15 ± 0.077.

Going from ANVFRLENQKDLVIVDE [MTW1] to ANVNASAMPAPYMPYYY [DSN1], the protein stability index falls from 3.49 ± 0.12 to 2.76 ± 0.06.

First: APEKDIWVGEWKEVLAH [RPO31]
Second: APEQQVQQFAQLPVGFK [UBP6]
The protein stability index of the first is lower: 2.47 ± 0.1 for the first, 2.92 ± 0.08 for the second.

APHDSEATLLTNSNNGS [SNF5] and APKGSTDPKELYNNAHV [RPC40] are within error of each other in protein stability index: 3.05 ± 0.065 for the first, 2.92 ± 0.14 for the second.

First: APMRLATAALEIILKLC [YJL039C/NUP192]
Second: APTRELVQQIQKETQKV [PRP28]
The protein stability index of the first is lower: 1.6 ± 0.064 for the first, 2.8 ± 0.087 for the second.

APVETKKKRFEIKKWTA [HRT1] and AQQQKRGGFGGRNRGRP [RPS2] are within error of each other in protein stability index: 3.15 ± 0.094 for the first, 3.32 ± 0.17 for the second.

Going from AQSHQRFNAKVSMVKRA [CDC53] to ARAAKIAPRPLDLLRPV [RPL13B], the protein stability index rises from 1.34 ± 0.045 to 2.81 ± 0.07.

ARDLATMTYEEVAKRLV [FAS1] and ARDLLDDLEKTLDKKDS [RPN9] are within error of each other in protein stability index: 2.94 ± 0.11 for the first, 3.21 ± 0.17 for the second.

Compared with ARILARSERKRTKISRG [ITC1], ARKSKEEREAAASKVKL [RPC53] is higher in protein stability index: 2.56 ± 0.062 for the first, 3.16 ± 0.22 for the second.

Going from ASEREELALIEEAYDNP [PRP8] to ASHNVRRIPKRMRNRAL [POP1], the protein stability index falls from 3 ± 0.12 to 2.11 ± 0.16.

ASIESADILCPLLESFI [IRR1] and ASKLAAYNKKSTISARE [HTB1] are within error of each other in protein stability index: 3.19 ± 0.14 for the first, 3.22 ± 0.12 for the second.

Compared with ASLNLLQLAPGAHLGRF [RPL4A], ASRDKTLISWKLTGDDQ [ASC1] is lower in protein stability index: 3.33 ± 0.16 for the first, 1.32 ± 0.14 for the second.

ASRNVWSFYNGNVLIND [SNU114] and ASSNFPFLNETKPGVYY [RPC82] are within error of each other in protein stability index: 2.87 ± 0.12 for the first, 3.09 ± 0.12 for the second.

Going from ASVVPSASSLVITALKE [RPL12A] to ASYAKIEIKISDPLTVF [SNU114], the protein stability index falls from 2.09 ± 0.044 to 1.21 ± 0.15.

Going from ATAFNKTRGPFHFRAPS [RPL16A] to ATAVAHVKAGKGLIKVN [RPS16A], the protein stability index falls from 2.67 ± 0.12 to 1.66 ± 0.2.

Compared with ATIIGIISTAIADSTHV [ECM29], ATKAINGCIFTLNPKTG [PRP8] is higher in protein stability index: 1.74 ± 0.073 for the first, 2.79 ± 0.095 for the second.

ATLGIDPPKGILLYGPP [RPT1] and ATNTFGSNQQSSTGGGL [YGR119C/NUP57] are within error of each other in protein stability index: 2.97 ± 0.078 for the first, 2.89 ± 0.12 for the second.

Going from ATSDNKTTNTTPSFSFG [YJL041W/NSP1] to ATSSTNANAGLFNKPPS [YOR098C/NUP1], the protein stability index falls from 3.13 ± 0.063 to 2.86 ± 0.053.

First: ATVPSGRPETYIWRYLP [RPO31]
Second: AVATPKAEVTQLSNGIV [COR1]
The protein stability index of the first is lower: 2.27 ± 0.12 for the first, 2.77 ± 0.074 for the second.

Compared with AVDAKQLAQIRQFLKAN [YML103C/NUP188], AVKDQQKYTKEMIDSHI [SNF2] is higher in protein stability index: 2.58 ± 0.12 for the first, 2.8 ± 0.062 for the second.

First: AVKLGDLKKFTSTITKY [RPN3]
Second: AVNMTQNIMTLPDGKNG [MED6]
The protein stability index of the first is lower: 2.1 ± 0.056 for the first, 2.79 ± 0.11 for the second.

AVTEATSTNGDSENNEE [RGR1] and AVVVGTGNIKHEDLVNS [COR1] are within error of each other in protein stability index: 3.13 ± 0.14 for the first, 3.05 ± 0.11 for the second.

First: AVYFADTSGLKISNSEF [SIN4]
Second: AYSMGAQNQGGQVSMSQ [PGD1]
The protein stability index of the first is lower: 2.96 ± 0.072 for the first, 3.15 ± 0.095 for the second.

AYVVNDTAPKPNIVEID [DLS1] and CAYTGTGDVLLIQDLLH [RPN1] are within error of each other in protein stability index: 3.26 ± 0.24 for the first, 3.01 ± 0.059 for the second.

First: CCINAAFLALVDAGIAL [RRP46]
Second: CCTKFFTMMTSEPLTLK [PCI8]
The protein stability index of the first is higher: 2.37 ± 0.078 for the first, 2.03 ± 0.07 for the second.

CDYYNTFLLNNKNIDIG [RPN2] and CEISGSIEQLRNVVEDI [BRN1] are within error of each other in protein stability index: 3.14 ± 0.087 for the first, 3.25 ± 0.18 for the second.

Going from CFMHLLVQLFLWDSKEL [RPN3] to CINELDNWNAPLIMATC [RPO31], the protein stability index rises from 1.23 ± 0.078 to 3.18 ± 0.16.

Going from CKLFDKISFNLRLKLFL [SRB8] to CLNCEKSKLFEWKSEFV [SNM1], the protein stability index rises from 1.41 ± 0.069 to 2.61 ± 0.14.

First: CLSPGAFLSKVPEFFQT [SRP14]
Second: CMEVASAFMKFSKAIEW [BRR2]
The protein stability index of the first is higher: 2.73 ± 0.098 for the first, 2.12 ± 0.064 for the second.

Going from CRDSDDHKRFIVFHNEF [DIS3] to CRSCPYEFPIEGIEIYD [RPC11], the protein stability index falls from 3.02 ± 0.1 to 1.73 ± 0.078.

Compared with CTEAGLLALRERRMQVT [RPT2], CTESTRENALYDYYALQ [SNF2] is lower in protein stability index: 2.17 ± 0.092 for the first, 1.83 ± 0.078 for the second.

Going from CTQMTDEGLLNMVSLRG [GRR1] to CVAAWGVCNHAFHLHCI [HRT1], the protein stability index falls from 2.78 ± 0.1 to 1.69 ± 0.05.

Compared with CWLSNIDIQTQDLNQRF [RRI1], DAHGVTQARVITGNKIM [RPS13] is lower in protein stability index: 2.72 ± 0.11 for the first, 2.21 ± 0.088 for the second.

DAIIPFAAIPEQGIELE [FAS2] and DAITVKDVKAWAGKRLW [COR1] are within error of each other in protein stability index: 3.12 ± 0.15 for the first, 3.01 ± 0.069 for the second.

First: DAKKARFWSFMKTQRFV [SIR4]
Second: DAKSTPLRLRLYDNFVS [RPN9]
The protein stability index of the first is lower: 2.6 ± 0.096 for the first, 3.3 ± 0.083 for the second.

First: DALLNSTTEHINIDDLL [YJL039C/NUP192]
Second: DATANATANATANATAN [DSN1]
The protein stability index of the first is lower: 2.47 ± 0.24 for the first, 3.25 ± 0.086 for the second.
